Data set [1] deals with HeLa Kyoto. The experiment in a line: solubility in G1/S (NP-40 vs SDS abundance) (log2 ratio); higher = more soluble. The note with it: cell cycle stage: G1/S.
Data set [2] deals with HeLa Kyoto. Put plainly: solubility change mitosis vs G1/S (difference of NP-40 vs SDS log2 ratios) (log2 ratio difference); higher = more soluble in mitosis.
The subject of data set [3] is HeLa Kyoto. The experiment in a line: thermal stability score vs G1/S (z-score of summed log2 fold changes over temperatures); higher = more thermally stable than in G1/S.
In data set [4] the test system is HeLa Kyoto. The experiment in a line: melting temperature (median over replicates), in situ; higher = more thermally stable.
Setting [5] is: cell cycle stage: early G1 (4.5 h after nocodazole release).
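Throughout, for melting temperature (median over replicates), in situ: HeLa Kyoto cells synchronized by double thymidine or nocodazole block, proteins quantified by TMT10plex mass spectrometry, three independent biological replicates.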
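Throughout, for solubility change mitosis vs G1/S (difference of NP-40 vs SDS log2 ratios): synchronized HeLa Kyoto cells (double thymidine block for G1/S, nocodazole release for mitosis), protein amounts in NP-40 versus SDS lysates quantified by mass spectrometry, three biological replicates.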
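Throughout, for solubility in G1/S (NP-40 vs SDS abundance): HeLa Kyoto cells arrested at G1/S by double thymidine block, proteins quantified by TMT10plex mass spectrometry in mild NP-40 versus SDS extracts, three biological replicates.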
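Throughout, for thermal stability score vs G1/S (z-score of summed log2 fold changes over temperatures): synchronized HeLa Kyoto cells, proteins quantified by TMT10plex mass spectrometry, three biological replicates, mitosis taken 0.5 h after nocodazole release, G1/S directly after double thymidine block.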

Regarding “MDPNTIIEALRGTMDPALREAAERQLNEAHKSLNFVSTLLQITMSEQLDLPVRQAGVIYLKNMITQYWPDRETAPGDISPYTIPEEDRHCIRENIVEAIIHSPELIRVQLTTCIHHIIKHDYPSRWTAIVDKIGFYLQSDNSACWLGILLCLYQLVKNYEYKKPEERSPLVAAMQHFLPVLKDRFIQLLSDQSDQSVLIQKQIFKIFYALVQYTLPLELINQQNLTEWIEILKTVVNRDVPNETLQVEEDDRPELPWWKCKKWALHILARLFERYGSPGNVSKEYNEFAEVFLKAFAVGVQQVLLKVLYQYKEKQYMAPRVLQQTLNYINQGVSHALTWKNLKPHIQGIIQDVIFPLMCYTDADEELWQEDPYEYIRMKFDVFEDFISPTTAAQTLLFTACSKRKEVLQKTMGFCYQILTEPNADPRKKDGALHMIGSLAEILLKKKIYKDQMEYMLQNHVFPLFSSELGYMRARACWVLHYFCEVKFKSDQNLQTALELTRRCLIDDREMPVKVEAAIALQVLISNQEKAKEYITPFIRPVMQALLHIIRETENDDLTNVIQKMICEYSEEVTPIAVEMTQHLAMTFNQVIQTGPDEEGSDDKAVTAMGILNTIDTLLSVVEDHKEITQQLEGICLQVIGTVLQQHVLEFYEEIFSLAHSLTCQQVSPQMWQLLPLVFEVFQQDGFDYFTDMMPLLHNYVTVDTDTLLSDTKYLEMIYSMCKKVLTGVAGEDAECHAAKLLEVIILQCKGRGIDQCIPLFVEAALERLTREVKTSELRTMCLQVAIAALYYNPHLLLNTLENLRFPNNVEPVTNHFITQWLNDVDCFLGLHDRKMCVLGLCALIDMEQIPQVLNQVSGQILPAFILLFNGLKRAYACHAEHENDSDDDDEAEDDDETEELGSDEDDIDEDGQEYLEILAKQAGEDGDDEDWEEDDAEETALEGYSTIIDDEDNPVDEYQIFKAIFQTIQNRNPVWYQALTHGLNEEQRKQLQDIATLADQRRAAHESKMIEKHGGYKFSAPVVPSSFNFGGPAPGMN [IPO7]”, in the data set with HeLa Kyoto [1], the “solubility in G1/S (log2)” value is -0.0648. In addition, the “solubility change mitosis (log2)” value in the data set on HeLa Kyoto [2] was -0.133. Moreover, the thermal stability score with HeLa Kyoto [3] (setting [5]) was found to be 1.18; in the data set on HeLa Kyoto [3] (cell cycle stage: mitosis) it was 3.75. Moreover, the results for the melting temperature in the data set with HeLa Kyoto [4] (cell cycle stage: G1/S) and with HeLa Kyoto [4] (cell cycle stage: mitosis) were 52.7 °C and 51.3 °C, respectively.
For the sequence “MDREERKTINQGQEDEMEIYGYNLSRWKLAIVSLGVICSGGFLLLLLYWMPEWRVKATCVRAAIKDCEVVLLRTTDEFKMWFCAKIRVLSLETYPVSSPKSMSNKLSNGHAVCLIENPTEENRHRISKYSQTESQQIRYFTHHSVKYFWNDTIHNFDFLKGLDEGVSCTSIYEKHSAGLTKGMHAYRKLLYGVNEIAVKVPSVFKLLIKEVLNPFYIFQLFSVILWSTDEYYYYALAIVVMSIVSIVSSLYSIRKQYVMLHDMVATHSTVRVSVCRVNEEIEEIFSTDLVPGDVMVIPLNGTIMPCDAVLINGTCIVNESMLTGESVPVTKTNLPNPSVDVKGIGDELYNPETHKRHTLFCGTTVIQTRFYTGELVKAIVVRTGFSTSKGQLVRSILYPKPTDFKLYRDAYLFLLCLVAVAGIGFIYTIINSILNEVQVGVIIIESLDIITITVPPALPAAMTAGIVYAQRRLKKIGIFCISPQRINICGQLNLVCFDKTGTLTEDGLDLWGIQRVENARFLSPEENVCNEMLVKSQFVACMATCHSLTKIEGVLSGDPLDLKMFEAIGWILEEATEEETALHNRIMPTVVRPPKQLLPESTPAGNQEMELFELPATYEIGIVRQFPFSSALQRMSVVARVLGDRKMDAYMKGAPEAIAGLCKPETVPVDFQNVLEDFTKQGFRVIALAHRKLESKLTWHKVQNISRDAIENNMDFMGLIIMQNKLKQETPAVLEDLHKANIRTVMVTGDSMLTAVSVARDCGMILPQDKVIIAEALPPKDGKVAKINWHYADSLTQCSHPSAIDPEAIPVKLVHDSLEDLQMTRYHFAMNGKSFSVILEHFQDLVPKLMLHGTVFARMAPDQKTQLIEALQNVDYFVGMCGDGANDCGALKRAHGGISLSELEASVASPFTSKTPSISCVPNLIREGRAALITSFCVFKFMALYSIIQYFSVTLLYSILSNLGDFQFLFIDLAIILVVVFTMSLNPAWKELVAQRPPSGLISGALLFSVLSQIIICIGFQSLGFFWVKQQPWYEVWHPKSDACNTTGSGFWNSSHVDNETELDEHNIQNYENTTVFFISSFQYLIVAIAFSKGKPFRQPCYKNYFFVFSVIFLYIFILFIMLYPVASVDQVLQIVCVPYQWRVTMLIIVLVNAFVSITVEESVDRWGKCCLPWALGCRKKTPKAKYMYLAQELLVDPEWPPKPQTTTEAKALVKENGSCQIITIT [ATP13A3]”, the “solubility in G1/S (log2)” value with HeLa Kyoto [1] was -0.205. The “solubility change mitosis (log2)” value in the data set on HeLa Kyoto [2] is -0.0406. Moreover, the thermal stability score with HeLa Kyoto [3] (setting [5]) was -0.654; in the data set on HeLa Kyoto [3] (cell cycle stage: mitosis) it was -0.884. Further, the melting temperature with HeLa Kyoto [4] (cell cycle stage: G1/S) was determined as 54.3 °C; in the data set with HeLa Kyoto [4] (cell cycle stage: mitosis) it was 53.9 °C.
In the case of “MDRFVWTSGLLEINETLVIQQRGVRIYDGEEKIKFDAGTLLLSTHRLIWRDQKNHECCMAILLSQIVFIEEQAAGIGKSAKIVVHLHPAPPNKEPGPFQSSKNSYIKLSFKEHGQIEFYRRLSEEMTQRRWENMPVSQSLQTNRGPQPGRIRAVGIVGIERKLEEKRKETDKNISEAFEDLSKLMIKAKEMVELSKSIANKIKDKQGDITEDETIRFKSYLLSMGIANPVTRETYGSGTQYHMQLAKQLAGILQVPLEERGGIMSLTEVYCLVNRARGMELLSPEDLVNACKMLEALKLPLRLRVFDSGVMVIELQSHKEEEMVASALETVSEKGSLTSEEFAKLVGMSVLLAKERLLLAEKMGHLCRDDSVEGLRFYPNLFMTQS [VPS36]”, in the data set on HeLa Kyoto [1], the “solubility in G1/S (log2)” value is -0.823. Also, the “solubility change mitosis (log2)” value in the data set on HeLa Kyoto [2] is -0.0782. Further, the thermal stability score with HeLa Kyoto [3] (setting [5]) was 1.41; in the data set with HeLa Kyoto [3] (cell cycle stage: mitosis), 2.15. Moreover, the figures for the melting temperature in the data set with HeLa Kyoto [4] (cell cycle stage: G1/S) and in the data set with HeLa Kyoto [4] (cell cycle stage: mitosis) were 51.6 °C and 51 °C, respectively.
As for “MDRMTEDALRLNLLKRSLDPADERDDVLAKRLKMEGHEAMERLKMLALLKRKDLANLEVPHELPTKQDGSGVKGYEEKLNGNLRPHGDNRTAGRPGKENINDEPVDMSARRSEPERGRLTPSPDIIVLSDNEASSPRSSSRMEERLKAANLEMFKGKGIEERQQLIKQLRDELRLEEARLVLLKKLRQSQLQKENVVQKTPVVQNAASIVQPSPAHVGQQGLSKLPSRPGAQGVEPQNLRTLQGHSVIRSATNTTLPHMLMSQRVIAPNPAQLQGQRGPPKPGLVRTTTPNMNPAINYQPQSSSSVPCQRTTSSAIYMNLASHIQPGTVNRVSSPLPSPSAMTDAANSQAAAKLALRKQLEKTLLEIPPPKPPAPLLHFLPSAANSEFIYMVGLEEVVQSVIDSQGKSCASLLRVEPFVCAQCRTDFTPHWKQEKNGKILCEQCMTSNQKKALKAEHTNRLKNAFVKALQQEQEIEQRLQQQAALSPTTAPAVSSVSKQETIMRHHTLRQAPQPQSSLQRGIPTSARSMLSNFAQAPQLSVPGGLLGMPGVNIAYLNTGIGGHKGPSLADRQREYLLDMIPPRSISQSISGQK [GATAD2B]”, the “solubility in G1/S (log2)” value in the data set on HeLa Kyoto [1] turned out to be 0.413. Besides, the “solubility change mitosis (log2)” value with HeLa Kyoto [2] turned out to be 0.158. The thermal stability score stood at 1.06 in the data set with HeLa Kyoto [3] (setting [5]) and 3.82 with HeLa Kyoto [3] (cell cycle stage: mitosis). Further, the melting temperature with HeLa Kyoto [4] (cell cycle stage: G1/S) was 49 °C; in the data set with HeLa Kyoto [4] (cell cycle stage: mitosis), 50.6 °C.
For “MDRSGFGEISSPVIREAEVTRTARKQSAQKRVLLQASQDENFGNTTPRNQVIPRTPSSFRQPFTPTSRSLLRQPDISCILGTGGKSPRLTQSSGFFGNLSMVTNLDDSNWAAAFSSQRSGLFTNTEPHSITEDVTISAVMLREDDPGEAASMSMFSDFLQSFLKHSSSTVFDLVEEYENICGSQVNILSKIVSRATPGLQKFSKTASMLWLLQQEMVTWRLLASLYRDRIQSALEEESVFAVTAVNASEKTVVEALFQRDSLVRQSQLVVDWLESIAKDEIGEFSDNIEFYAKSVYWENTLHTLKQRQLTSYVGSVRPLVTELDPDAPIRQKMPLDDLDREDEVRLLKYLFTLIRAGMTEEAQRLCKRCGQAWRAATLEGWKLYHDPNVNGGTELEPVEGNPYRRIWKISCWRMAEDELFNRYERAIYAALSGNLKQLLPVCDTWEDTVWAYFRVMVDSLVEQEIQTSVATLDETEELPREYLGANWTLEKVFEELQATDKKRVLEENQEHYHIVQKFLILGDIDGLMDEFSKWLSKSRNNLPGHLLRFMTHLILFFRTLGLQTKEEVSIEVLKTYIQLLIREKHTNLIAFYTCHLPQDLAVAQYALFLESVTEFEQRHHCLELAKEADLDVATITKTVVENIRKKDNGEFSHHDLAPALDTGTTEEDRLKIDVIDWLVFDPAQRAEALKQGNAIMRKFLASKKHEAAKEVFVKIPQDSIAEIYNQCEEQGMESPLPAEDDNAIREHLCIRAYLEAHETFNEWFKHMNSVPQKPALIPQPTFTEKVAHEHKEKKYEMDFGIWKGHLDALTADVKEKMYNVLLFVDGGWMVDVREDAKEDHERTHQMVLLRKLCLPMLCFLLHTILHSTGQYQECLQLADMVSSERHKLYLVFSKEELRKLLQKLRESSLMLLDQGLDPLGYEIQL [NUP107]”, the “solubility in G1/S (log2)” value in the data set with HeLa Kyoto [1] was -0.526. In addition, the “solubility change mitosis (log2)” value in the data set with HeLa Kyoto [2] came out at 0.428. Besides, the results for the thermal stability score in the data set with HeLa Kyoto [3] (setting [5]) and with HeLa Kyoto [3] (cell cycle stage: mitosis) were -2.75 and -3.13, respectively. Moreover, the melting temperature turned out to be 51.1 °C in the data set with HeLa Kyoto [4] (cell cycle stage: G1/S) and 49.3 °C with HeLa Kyoto [4] (cell cycle stage: mitosis).

These data come from the supplement of paper PMC5998384.
